Source: publication PMC10715038 (Microbiology Spectrum, 2023)

Biological target: T1, SARS-CoV-2 WHU01 Spike RBD, monomeric (SARS-CoV-2, UniProt P0DTC2)
T1 construct: not shown: Fc (human IgG1), C-terminal, cleaved
Assay: SPR
Details: both partners purified

B1: Cattle ACE2-huFc (soluble cattle ACE2 ectodomain, human IgG1 Fc fusion) (Fc fusion)
chain: QSTTEEQAKTFLEKFNHEAEDLSYQSSLASWNYNTNITDENVQKMNEARAKWSAFYEEQSRMAKTYSLEEIQNLTLKRQLKALQHSGTSALSAEKSKRLNTILNKMSTIYSTGKVLDPNTQECLALEPGLDDIMENSRDYNRRLWAWEGWRAEVGKQLRPLYEEYVVLENEMARANNYEDYGDYWRGDYEVTGAGDYDYSRDQLMKDVERTFAEIKPLYEQLHAYVRAKLMHTYPSYISPTGCLPAHLLGDMWGRFWTNLYSLTVPFEHKPSIDVTEKMENQSWDAERIFKEAEKFFVSISLPYMTQGFWDNSMLTEPGDGRKVVCHPTAWDLGKGDFRIKMCTKVTMDDFLTAHHEMGHIQYDMAYAAQPYLLRNGANEGFHEAVGEIMSLSAATPHYLKALGLLAPDFHEDNETEINFLLKQALTIVGTLPFTYMLEKWRWMVFKGEIPKQQWMEKWWEMKREIVGVVEPLPHDETYCDPACLFHVAEDYSFIRYYTRTIYQFQFHEALCKTAKHEGALFKCDISNSTEAGQRLLQMLRLGKSEPWTLALENIVGIKTMDVKPLLNYFEPLFTWLKEQNRNSFVGWSTEWTPYSDQSIKVRISLKSALGENAYEWNDNEMYLFQSSVAYAMRKYFSEARNETVLFGEDNVWVSDKKPRISFKFFVTSPNNVSDIIPRTEVENAIRLSRDRINDVFQLDDNSLEFLGIQPTLGPPYEPPVTI
In the case of B1, the Kd is reported as 700 nM, the koff is reported as 0.066 s⁻¹ and the kon is reported as 94000 M⁻¹ s⁻¹.
